# In paper PMC11107369, “The Plasmodium vivax MSP1P-19 is involved in binding of reticulocytes through interactions with the membrane proteins band3 and CD71” (The Journal of Biological Chemistry, 2024):
# B1: Plasmodium vivax merozoite surface protein 1 paralog, 19-kDa C-terminal region (PvMSP1P-19), Trx-His-Flag-tagged (domain or fragment)
# chain: DRVEKNCRNRKCPLNSFCFIQTINEECLCLLNYSMVGEKCILNEQNSCAVKNGGCDLKATCELKKNRVNCICPKGTKPMHEGVVCS
# notes: P. vivax merozoite surface protein 1 paralog (PvMSP1P, 1854 aa), PlasmoDB PVX_099975, aa 1749-1834 (two EGF-like domains); Migrates at ~36 kDa; also called Trx-His-PvMSP1P-19; His-MSP1P-19; source: E. coli BL21 (DE3) and SHuffle T7 E. coli, pET32a, soluble, purified by Talen Biotech
# Target: T1, Recombinant CD71-ECD immobilised on the CM5 chip (SPR) (human, UniProt P02786 89-760)
# T1 construct: Human transferrin receptor protein 1 (CD71), extracellular domain; source: recombinant
# T1 sequence (P02786 89-760): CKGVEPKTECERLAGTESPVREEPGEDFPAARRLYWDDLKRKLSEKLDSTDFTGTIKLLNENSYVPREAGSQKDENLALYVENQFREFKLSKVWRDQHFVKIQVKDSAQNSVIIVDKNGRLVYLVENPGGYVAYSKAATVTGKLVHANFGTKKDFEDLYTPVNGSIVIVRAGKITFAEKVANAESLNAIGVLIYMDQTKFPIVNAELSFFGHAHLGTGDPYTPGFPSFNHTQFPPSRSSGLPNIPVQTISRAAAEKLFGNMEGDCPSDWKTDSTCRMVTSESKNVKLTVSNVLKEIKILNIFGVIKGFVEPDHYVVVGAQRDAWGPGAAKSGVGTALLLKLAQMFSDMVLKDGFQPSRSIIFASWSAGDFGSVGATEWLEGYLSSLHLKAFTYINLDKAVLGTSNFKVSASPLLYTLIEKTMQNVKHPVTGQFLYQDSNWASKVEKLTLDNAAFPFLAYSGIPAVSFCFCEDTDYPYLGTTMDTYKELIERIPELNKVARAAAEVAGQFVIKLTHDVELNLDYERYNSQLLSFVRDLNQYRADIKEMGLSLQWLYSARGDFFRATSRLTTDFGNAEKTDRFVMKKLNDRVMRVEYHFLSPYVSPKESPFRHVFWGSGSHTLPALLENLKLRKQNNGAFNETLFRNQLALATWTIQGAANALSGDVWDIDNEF
# Test: SPR; BIAcore S200; CD71-ECD coupled to CM5 chip (EDC/NHS, 10 mM NaAc pH 4.5); analyte PvMSP1P-19 6.25, 12.5, 25, 50 μM at 30 μl/min; 1:1 Langmuir model; apparent KD
# Details: both partners purified
binder,measurement,value
B1,Kd,35.5 µM
